# Source: patent publication US20180280549A1 (METAFORA BIOSYSTEMS, published 2018)
# T1: ASCT2 (glutamine and other neutral amino acid transporter) (human, UniProt Q15758 1-541)
# T1 construct: Endogenous transporter on human pancreatic tumor cell lines; also called human ASCT2
# T1 sequence: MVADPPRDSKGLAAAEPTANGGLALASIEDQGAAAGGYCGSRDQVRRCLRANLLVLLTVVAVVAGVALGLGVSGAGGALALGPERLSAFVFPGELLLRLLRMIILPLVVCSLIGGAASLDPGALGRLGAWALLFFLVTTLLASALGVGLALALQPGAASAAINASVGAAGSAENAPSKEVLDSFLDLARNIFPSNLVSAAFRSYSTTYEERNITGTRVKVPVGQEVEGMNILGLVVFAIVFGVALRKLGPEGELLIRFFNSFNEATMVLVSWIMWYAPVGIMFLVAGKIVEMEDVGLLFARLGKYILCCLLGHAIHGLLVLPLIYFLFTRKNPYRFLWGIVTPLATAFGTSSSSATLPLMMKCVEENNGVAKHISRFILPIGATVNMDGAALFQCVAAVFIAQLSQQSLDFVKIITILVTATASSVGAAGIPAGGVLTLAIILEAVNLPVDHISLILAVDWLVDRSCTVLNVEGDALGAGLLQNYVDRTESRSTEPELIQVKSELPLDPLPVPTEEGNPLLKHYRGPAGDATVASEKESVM
# T2: ASCT1 (glutamate and neutral amino acid transporter) (human, UniProt P43007 1-532)
# T2 construct: Endogenous transporter on human pancreatic tumor cell lines; also called human ASCT1
# T2 sequence: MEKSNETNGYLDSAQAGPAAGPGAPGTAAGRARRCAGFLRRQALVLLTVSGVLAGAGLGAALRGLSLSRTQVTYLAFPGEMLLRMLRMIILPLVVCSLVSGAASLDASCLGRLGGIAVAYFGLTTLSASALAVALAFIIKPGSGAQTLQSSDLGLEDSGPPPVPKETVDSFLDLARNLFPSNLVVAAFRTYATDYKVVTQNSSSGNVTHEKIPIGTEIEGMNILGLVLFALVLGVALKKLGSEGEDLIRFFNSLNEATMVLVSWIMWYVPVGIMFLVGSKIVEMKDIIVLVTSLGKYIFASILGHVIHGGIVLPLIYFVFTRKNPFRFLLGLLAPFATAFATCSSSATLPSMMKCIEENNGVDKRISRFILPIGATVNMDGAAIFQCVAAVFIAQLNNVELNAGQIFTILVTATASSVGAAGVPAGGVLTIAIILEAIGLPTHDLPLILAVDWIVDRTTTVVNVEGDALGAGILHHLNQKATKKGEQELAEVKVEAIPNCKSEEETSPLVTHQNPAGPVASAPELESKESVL
# How the values were obtained:
# [1] = target: T1, ASCT2 (glutamine and other neutral …); assay: flow cytometry on pancreatic tumor cell lines (endogenous transporter; ASCT-1/ASCT-2 is the target by Table 1), anti-mouse A647 detection; Capan1 also detected (data not shown)
# [2] = target: T2, ASCT1 (glutamate and neutral amino acid …); assay: as above
binder,measurement,setting,value
"HERV-W.RBD.MFC (HERV-W.RBD, receptor-binding domain of the human endogenous retrovirus W envelope glycoprotein, fused to a mouse Fc fragment) (Fc fusion, I-125 on tyrosine or histidine residues in the in vivo experiment only (IODO-GEN method); unlabelled in flow cytometry, The entry may begin with a signal peptide; also called I-125.HERV-W.RBD.MFC) APPPCRCMTSSSPYQEFLWRMQRPGNIDAPSYRSLSKGTPTFTAHTHMPRNCYHSATLCMHANTHYWTGKMINPSCPGGLGVTVCWTYFTQTGMSDGGGVQGSVDVPRDCGCKPCICTVPEVSSVFIFPPKPKDVLTITLTPKVTCVVVDISKDDPEVQFSWFVDDVEVHTAQTQPREEQFNSTFRSVSELPIMHQDWLNGKEFKCRVNSAAFPAPIEKTISKTKGRPKAPQVYTIPPPKEQMAKDKVSLTCMITDFFPEDITVEWQWNGQPAENYKNTQPIMDTDGSYFVYSKLNVQKSNWEAGNTFTCSVLHEGLHNHHTEKSLSHSPGK",binding result,[1],binds
same,binding result,[2],binds
